Where a chain is given by its changes, count along the chain named. One block for each binder: values may come before it.
Target: recombinant human mannose-6-phosphate receptor (M6PR) (human, UniProt P11717 41-2491)
Assay: SPR; Biacore T200, single cycle kinetics mode; IDS enzymes co-expressed with HsFGE on recombinant human M6P receptor; who was immobilised is not given in the source
Details: both partners purified

Kd: 32 nM
B1: human iduronate-2-sulfatase (hIDS), co-expressed with human formylglycine-generating enzyme (HsFGE) (enzyme)
chain: SETQANSTTDALNVLLIIVDDLRPSLGCYGDKLVRSPNIDQLASHSLLFQNAFAQQAVCAPSRVSFLTGRRPDTTRLYDFNSYWRVHAGNFSTIPQYFKENGYVTMSVGKVFHPGISSNHTDDSPYSWSFPPYHPSSEKYENTKTCRGPDGELHANLLCPVDVLDVPEGTLPDKQSTEQAIQLLEKMKTSASPFFLAVGYHKPHIPFRYPKEFQKLYPLENITLAPDPEVPDGLPPVAYNPWMDIRQREDVQALNISVPYGPIPVDFQRKIRQSYFASVSYLDTQVGRLLSALDDLQLANSTIIAFTSDHGWALGEHGEWAKYSNFDVATHVPLIFYVPGRTASLPEAGEKLFPYLDPFDSASQLMEPGRQSMDLVELVSLFPTLAGLAGLQVPPRCPVPSFHVELCREGKNLLKHFRFRDLEEDPYLPGNPRELIAYSQYPRPSDIPQWNSDKPSLKDIKIMGYSIRTIDYRYTVWVGFNPDEFLANFSDIHAGELYFVDSDPLQDHNMYNDSQGGDLFQLLMP
modifications: cysteine 84 post-translationally modified to formylglycine (fGly); N-linked glycans
notes: iduronate-2-sulfatase (IDS), human; 550-residue protein; also called human IDS; hIDS + HsFGE

Kd: 26 nM
B2: IDS-A3, reconstructed ancestral iduronate-2-sulfatase (last common ancestor of primates and rodents), co-expressed with HsFGE (enzyme)
chain: SETQANSTTDALNVLLIIVDDLRPSLGCYGDKLVRSPNIDQLASHSLLFQNAFAQQAVCAPSRVSFLTGRRPDTTRLYDFNSYWRVHAGNFSTIPQYFKENGYVTMSVGKVFHPGISSNHSDDSPYSWSFPPYHPSSEKYENTKTCRGPDGELHANLLCPVDVADVPEGTLPDKQSTEQAIRLLEKMKTSASPFFLAVGYHKPHIPFRYPKEFQKLYPLENITLAPDPQVPDGLPPVAYNPWMDIRQREDVQALNISVPYGPIPVDFQRKIRQSYFASVSYLDTQVGHLLSALDDLQLANSTIVAFTSDHGWALGEHGEWAKYSNFDVTTRVPLMFYVPGRTAPLPEAGEKLFPYLDPFDSASELMEPGRQTMDLVELVSLFPTLAGLAGLQVPPRCPVPSFHVELCREGQNLLKHFRFHDLEEDPHLHGNPRELIAYSQYPRPADSPQWNSDKPSLKDIKIMGYSIRTIDYRYTVWVGFNPDEFLANFSDIHAGELYFVDSDPLQDHNMYNDSQGGDLPQSLMP
modifications: cysteine 84 post-translationally modified to formylglycine (fGly); N-linked glycans

Kd: 46 nM
B3: IDS-A3_T354A, variant of ancestral IDS-A3 with the reversed mutation at position 354, co-expressed with HsFGE (enzyme)
chain: B2 chain with T329A
modifications: cysteine 84 post-translationally modified to formylglycine (fGly); N-linked glycans

Reference: paper PMC7907806, “Ancestral lysosomal enzymes with increased activity harbor therapeutic potential for treatment of Hunter syndrome” (iScience, 2021)
